Each block holds one binder with its values, some of them ahead of it.
What was measured:
[1] = molecular target: T1, epidermal growth factor receptor (EGFR) on EGFR-expressing tumor cell lines A-431, HCT-116 and HT-29 (human, UniProt P00533 25-1210); assay: cell-based ELISA on A-431 cells, anti-IgG1-HRP, signal at 450 nm
T1 construct: whole, on cells; also called EGFR on tumor cells
Method: To this end, tumor cells were first seeded at different concentrations on day −1 to reach a concentration of approximately 50000 cells/well on day 0. […] Bound antibodies were then labelled in a secondary incubation step with anti-IgG1-HRP for one hour at 37° C. The secondary antibody binding was then resolved by the addition of 3,3′,5,5′-Tetramethylbenzidine and the colorimetric change induced by the HRP, followed by the addition of H2SO4 to stop the reaction. The optical density (OD) was then measured in a UV spectrometer at a wavelength of 450 nm.

[2] = molecular target: human Vγ9Vδ2 T cell receptor (TCR) on primary Vγ9Vδ2 T cells (human), Q99603; assay: cell-based or functional assay
[3] = molecular target: T1, epidermal growth factor receptor (EGFR) …; assay: cell-based or functional assay

EC50 (read off the curve) [1]: ~2 nM
B1: 7D12var8-5C8var1(Y105F)-Fc (bispecific antibody, V domains shown)
V domain 1: EVQLVESGGGSVQPGGSLRLSCAASGRTSRSYGMGWFRQAPGKEREFVSGISWRGDSTGYADSVKGRFTISRDNAKNTVDLQMNSLRAEDTAVYYCAAAAGSAWYGTLYEYDYWGQGTLVTVSS
V domain 2: EVQLLESGGGSVQPGGSLRLSCAASGRPFSNYAMSWFRQAPGKEREFVSAISWSGGSTSYADSVKGRFTISRDNSKNTLYLQMNSLRAEDTAVYYCAAQFSGADFGFGRLGIRGYEYDYWGQGTQVTVSS
notes: Heterodimer of two VHH-Fc chains: the anti-EGFR 7D12var8-Fc (hole) and the anti-Vδ2 5C8var1(Y105F)-Fc (knob); The Fc is human IgG1 with L234F/L235E and a modified hinge; also called 7D12var8-5C8var1(Y105F) with Fc region

EC50 degranulation (CD107A+ Vγ9Vδ2 T cells, 4 h, with A431 cells) [2]: 0.011 nM
B2: bispecific VHH 7D12var8-5C8var1-Y105F (bispecific antibody)
chain: EVQLVESGGGSVQPGGSLRLSCAASGRTSRSYGMGWFRQAPGKEREFVSGISWRGDSTGYADSVKGRFTISRDNAKNTVDLQMNSLRAEDTAVYYCAAAAGSAWYGTLYEYDYWGQGTLVTVSSGGGGSEVQLLESGGGSVQPGGSLRLSCAASGRPFSNYAMSWFRQAPGKEREFVSAISWSGGSTSYADSVKGRFTISRDNSKNTLYLQMNSLRAEDTAVYYCAAQFSGADFGFGRLGIRGYEYDYWGQGTQVTVSS
EC50 cytotoxicity (A431 tumor cell kill, 24 h, with Vγ9Vδ2 T cells) [3]: 0.0025 nM

Reference: patent US20230303694A1 (LAVA THERAPEUTICS N V, published 2023)
